We go through 5 molecules from article PMC10401102, “Repurposing CRISPR/Cas to Discover SARS‐CoV‐2 Detecting and Neutralizing Aptamers”.

Series [1] deals with T1, SARS-CoV-2 Spike RBD (original) (SARS-CoV-2 (original), UniProt P0DTC2 319-541). In words: ELONA; 25 C.
Series [2] deals with T1, SARS-CoV-2 Spike RBD (original). In words: EMSA.

As a reminder, the Kd is the free concentration of one partner at which half of the binding sites on the other are occupied at equilibrium, for simple one-to-one binding. Lower therefore signals tighter binding.

B1: #2-1-18 (structured_RNA)
RNA: ACUUGGCCACGUCGACUGAAAUCCUCUUCCUGCAGGGCCAAGUG
The molecule B1 had a Kd in series [1] of 16.8 nM.

B2: #2-1-18-2'-F-O (structured_RNA)
RNA: B1 RNA
modifications: 2'-F at pyrimidines, 2'-O-methyl at purines
In the case of B2, the binding result in series [2] is “binds”.

B3: #5-2-15 (structured_RNA)
RNA: ACUUGGCCAAUUACCGUAGUUUUUGUAGUCUGCAGGGCCAAGUG
Turning to B3, in series [1], the dissociation constant Kd is 24.7 nM.

B4: #5-2-15-2'-F-O (structured_RNA)
RNA: B3 RNA
modifications: 2'-F at pyrimidines, 2'-O-methyl at purines
As to B4, the binding result in series [2] is given as “binds”.

B5: NC-RNA apt (ssRNA)
RNA: ACUUGGCCAUUUUUCUUUUUCUUUUUCUUUUUCUGCAGGGCCAAGUG
With B5, the binding result in series [2] was “no binding”.
